B1: Envelopment polyprotein (Uukuniemi virus (strain S23)), P09613 (parent)
chain: MVRTYLLLLLLCGPATPFFNHLMDVTRRLLDSSNATWQRDQPDTHRLSRLDAHVMSMLGVGSHIDEVSVNHSQHLHNFRSYNCEEGRRTLTMMDPKSGKFKRLKCNENQTLSKDCASCIEKKSSIMKSEHLVYDDAICQSDYSSPEAMPDHETHLCRIGPLHIQHCTHEAKRVQHVSWFWIDGKLRVYDDFSVSWTEGKFLSLFDCLNETSKDHNCNKAVCLEGRCSGDLQFCTEFTCSYAKADCNCKRNQVSGVAVVHTKHGSFMPECMGQSLWSVRKPLSKRSVTVQQPCMDCESDCKVDHILVIVRHFYPDHYQACLGSTCLTGRAKDKEFKIPFKMADRLSDSHFEIRIWDKERSNEYFLESRCESVDACAAITCWFCRANWANIHCFSKEQVLILVAVSSLCILLLASVLRALKVIATFTWKIIKPFWWILSLLCRTCSKRLNKRAERLKESIHSLEEGLNNVDEGPREQNNPARAVARPNVRQKMFNLTRLSPVVVGMLCLACPVESCSDSISVTASSQRCSTSSDGVNSCFVSTSSLLQVSPKGQESCLILKGPTGTAVDSIRIKTTDIKLECVRRDLYWVPRVTHRCIGTRRCHLMGACKGEACSEFKINDYSPEWGHEEELMAQLGWSYCVEQCGGALCQCFNMRPSCFYLRKTFSHLSQDAFNIYECSEWSYRINVLVSTNSTHSNLTLKLGVPDSIPHGLISLSSVSQPPAIAYSECFGEDLHGTKFHTVCNRRTDYTLGRIGEIQCPTKADALAVSKRCISSDSIIFSKVHKDSVDCQSSIIDPMTIRNRNKLPSTVGSVTFWPTETSVEAAIPDLASATMLIRLDGYTIQFRSDSNKCSPRFLSLSGCYNCEAGAKLELEHVTDFGTALGILECPSLGYTTYYEVKNTLEKSIRTMHLNGSHVEAKCYFRCPNSESQLTIRGELIYLFNDDIRHHNQTLSPGLSPKSGSGWDPFGWFKASWLRAIWAILGGTVSLIIGVVIIYMVFTLCLKVKKS

Variants of: B1
Conditions: with gbf1_human GBF1, Q92538
gbf1_human GBF1, Q92538, sequence (Q92538 whole entry): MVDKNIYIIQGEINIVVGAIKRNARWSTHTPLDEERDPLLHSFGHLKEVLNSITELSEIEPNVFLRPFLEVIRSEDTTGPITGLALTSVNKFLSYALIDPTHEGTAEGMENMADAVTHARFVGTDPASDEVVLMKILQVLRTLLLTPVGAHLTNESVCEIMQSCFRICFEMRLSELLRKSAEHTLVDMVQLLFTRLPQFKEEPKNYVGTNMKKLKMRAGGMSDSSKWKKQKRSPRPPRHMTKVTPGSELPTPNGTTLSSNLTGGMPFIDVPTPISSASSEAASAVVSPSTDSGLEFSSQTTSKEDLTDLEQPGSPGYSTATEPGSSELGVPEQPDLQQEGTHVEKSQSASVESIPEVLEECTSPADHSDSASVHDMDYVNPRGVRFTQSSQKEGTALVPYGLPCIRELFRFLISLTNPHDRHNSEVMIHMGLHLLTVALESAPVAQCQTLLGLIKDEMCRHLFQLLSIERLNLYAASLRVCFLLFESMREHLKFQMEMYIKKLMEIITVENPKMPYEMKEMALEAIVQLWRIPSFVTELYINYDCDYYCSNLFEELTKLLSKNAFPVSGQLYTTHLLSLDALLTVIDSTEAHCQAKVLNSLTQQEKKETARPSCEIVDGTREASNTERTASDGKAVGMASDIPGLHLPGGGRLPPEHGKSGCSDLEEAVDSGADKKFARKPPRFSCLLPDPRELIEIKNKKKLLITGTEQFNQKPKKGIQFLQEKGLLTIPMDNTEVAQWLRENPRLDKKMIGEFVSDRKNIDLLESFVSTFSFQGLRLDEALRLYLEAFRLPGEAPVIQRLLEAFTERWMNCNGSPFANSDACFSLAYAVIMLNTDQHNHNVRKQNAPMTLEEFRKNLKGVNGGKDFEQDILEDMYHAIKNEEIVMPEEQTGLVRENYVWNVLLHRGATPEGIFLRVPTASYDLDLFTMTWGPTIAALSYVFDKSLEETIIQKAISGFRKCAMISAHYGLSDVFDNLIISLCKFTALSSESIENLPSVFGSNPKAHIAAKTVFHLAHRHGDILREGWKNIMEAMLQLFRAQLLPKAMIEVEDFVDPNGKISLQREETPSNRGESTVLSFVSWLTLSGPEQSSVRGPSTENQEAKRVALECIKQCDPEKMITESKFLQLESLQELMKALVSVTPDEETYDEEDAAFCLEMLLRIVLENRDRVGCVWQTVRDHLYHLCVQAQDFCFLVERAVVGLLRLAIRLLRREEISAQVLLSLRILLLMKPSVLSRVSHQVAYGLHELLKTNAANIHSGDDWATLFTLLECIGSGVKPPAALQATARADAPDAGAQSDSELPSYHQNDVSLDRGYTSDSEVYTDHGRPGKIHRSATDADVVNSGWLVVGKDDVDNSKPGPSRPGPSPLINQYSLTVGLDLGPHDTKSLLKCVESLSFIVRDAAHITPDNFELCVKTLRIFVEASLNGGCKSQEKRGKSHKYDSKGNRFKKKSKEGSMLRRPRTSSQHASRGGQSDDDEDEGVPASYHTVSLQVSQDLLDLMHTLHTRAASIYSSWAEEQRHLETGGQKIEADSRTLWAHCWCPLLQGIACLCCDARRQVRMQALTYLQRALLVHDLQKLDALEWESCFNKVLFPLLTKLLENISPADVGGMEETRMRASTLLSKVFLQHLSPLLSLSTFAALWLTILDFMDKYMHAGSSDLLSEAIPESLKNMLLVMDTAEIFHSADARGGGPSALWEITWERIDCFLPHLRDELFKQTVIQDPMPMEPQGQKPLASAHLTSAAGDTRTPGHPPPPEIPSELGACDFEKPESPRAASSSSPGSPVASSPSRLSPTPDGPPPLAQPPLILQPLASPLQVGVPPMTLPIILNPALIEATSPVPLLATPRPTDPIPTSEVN
With L438A;L439A the “effect of a mutation on the interaction” value was “with no effect”. For L461A;E462A;E463A;G464A;L465A, the “effect of a mutation on the interaction” value was “with no effect”.

From IntAct's records for PubMed 31570497
